Reference: article PMC2814127

How the values were obtained:
[1] = target: actin (rabbit fast twitch skeletal muscle), reconstituted as actin filament in gelsolin-extracted bovine myocardium (rabbit) (UniProt P68135)
[2] = target: actin (rabbit fast twitch skeletal muscle), reconstituted as actin filament in gelsolin-extracted bovine myocardium (rabbit) (UniProt P68135); remark: listed apart in the source

Stiffness at pCa 7 (25°C), fibres reconstituted with acetyl Tm (from bovine myocardium) and Tn [1]: 0.038 T ac
Stiffness at pCa 7 (25°C), fibres reconstituted with nfTm and Tn [1]: 0.044 T ac
Stiffness at pCa 7 (25°C), fibres reconstituted with ∆2Tm and Tn [1]: 0.039 T ac
Stiffness at pCa 7 (25°C), fibres reconstituted with ∆3Tm and Tn [1]: 0.04 T ac
Tension at pCa 7 (25°C), fibres reconstituted with acetyl Tm (from bovine myocardium) and Tn [1]: 0.168 T ac
Tension at pCa 7 (25°C), fibres reconstituted with nfTm and Tn [1]: 0.065 T ac
Tension at pCa 7 (25°C), fibres reconstituted with ∆2Tm and Tn [1]: 0.109 T ac
Tension at pCa 7 (25°C), fibres reconstituted with ∆3Tm and Tn [1]: 0.196 T ac
Rigor stiffness (100 Hz, 25°C), fibres reconstituted with nfTm and Tn [2]: 166 T ac
Rigor stiffness (100 Hz, 25°C), fibres reconstituted with ∆2Tm and Tn [2]: 201 T ac
Rigor stiffness (100 Hz, 25°C), fibres reconstituted with ∆3Tm and Tn [2]: 249 T ac
Tension (T m), steady-state active tension in the standard activating solution at 25°C, fibres reconstituted with nfTm and Tn [2]: 1.51 T ac
Tension (T m), steady-state active tension in the standard activating solution at 25°C, fibres reconstituted with ∆2Tm and Tn [2]: 1.65 T ac
Tension (T m), steady-state active tension in the standard activating solution at 25°C, fibres reconstituted with ∆3Tm and Tn [2]: 0.91 T ac
Substance: myosin of bovine myocardium (thick filament, cross-bridges) (from UniProt Q9BE39 1-1935) (complex)
